From article PMC7210950 (2020)
Square brackets hold non-standard residues; d marks the D form. Ends that are not written are not given here. pY = N[C@@H](Cc1ccc(OP(=O)(O)O)cc1)C(=O)O

Legend:
Assay in all cases: FP
[1] = target: Btk SH2 domain R372G (XLA mutation) (human, UniProt Q06187 271-383, R372G)
[2] = target: Btk SH2 domain H364D (XLA mutation) (human, UniProt Q06187 271-383, H364D)
[3] = target: Btk SH2 domain S371P (XLA mutation) (human, UniProt Q06187 271-383, S371P)
[4] = target: Btk SH2 domain K296E (XLA mutation) (human, UniProt Q06187 271-383, K296E)
Sequence of Btk SH2 domain K296E (XLA mutation) (Q06187 271-383 K296E): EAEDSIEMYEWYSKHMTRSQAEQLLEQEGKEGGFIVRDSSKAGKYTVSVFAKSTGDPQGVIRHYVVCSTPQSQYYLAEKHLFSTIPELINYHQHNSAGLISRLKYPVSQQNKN

[5] = target: Btk SH2 domain, wild-type (recombinant) (human, UniProt Q06187 271-383)
Sequence of Btk SH2 domain, wild-type (recombinant) (Q06187 271-383): as the sequence (Q06187 271-383 K296E) above, with E26K counted along it

[6] = target: Btk SH2 domain K374N (XLA mutation) (human, UniProt Q06187 271-383, K374N)
Sequence of Btk SH2 domain K374N (XLA mutation) (Q06187 271-383 K374N): as the sequence (Q06187 271-383 K296E) above, with E26K, K104N counted along it

Sequence of Btk SH2 domain R372G (XLA mutation) (Q06187 271-383 R372G): as the sequence (Q06187 271-383 K296E) above, with E26K, R102G counted along it
Sequence of Btk SH2 domain H364D (XLA mutation) (Q06187 271-383 H364D): as the sequence (Q06187 271-383 K296E) above, with E26K, H94D counted along it
Sequence of Btk SH2 domain S371P (XLA mutation) (Q06187 271-383 S371P): as the sequence (Q06187 271-383 K296E) above, with E26K, S101P counted along it

Kd [1]: 5.8 µM
Kd [2]: 6.9 µM
Kd [3]: 5.7 µM
Kd [4]: 21.8 µM
Kd [5]: 7.1 µM
Kd [6]: 8.7 µM
B1: FITC-labeled pY-peptide (ADNDpYIIPLPD) (peptide)
peptide: ADND[pY]IIPLPD
modifications: also: FITC label, end not given here
